T1: Trop2 protein (UniProt P09758 27-274)
T1 construct: Bought recombinant protein; also called Trop2-Biotin protein (biotin-labelled, bridging ELISA)
T1 sequence (looked up): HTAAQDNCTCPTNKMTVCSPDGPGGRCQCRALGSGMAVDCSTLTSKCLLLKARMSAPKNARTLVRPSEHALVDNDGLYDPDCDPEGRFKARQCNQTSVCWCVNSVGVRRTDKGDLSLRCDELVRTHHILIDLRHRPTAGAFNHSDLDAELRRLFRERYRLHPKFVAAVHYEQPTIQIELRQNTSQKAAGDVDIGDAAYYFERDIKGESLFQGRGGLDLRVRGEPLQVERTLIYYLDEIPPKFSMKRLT

T2: Trop2 on A-375-Trop2 melanoma cells (UniProt P09758 27-323, limits assumed)
T2 construct: whole, on cells
T2 sequence (looked up): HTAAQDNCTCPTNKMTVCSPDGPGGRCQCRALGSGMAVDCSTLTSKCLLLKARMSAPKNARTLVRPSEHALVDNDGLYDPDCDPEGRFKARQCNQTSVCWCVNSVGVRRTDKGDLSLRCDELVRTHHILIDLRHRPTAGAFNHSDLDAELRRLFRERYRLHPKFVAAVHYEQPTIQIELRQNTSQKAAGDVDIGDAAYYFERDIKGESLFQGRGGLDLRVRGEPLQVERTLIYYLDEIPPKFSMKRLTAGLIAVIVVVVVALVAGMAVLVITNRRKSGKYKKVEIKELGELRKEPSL


Key:
Trop2 protein = target: T1, Trop2 protein; assay: ELISA, coated Trop2 protein, OD450
Text: In this example, the binding properties of the CD3×Trop2 and CD3×PDL1 bispecific antibody (the production method and the amino acid sequences of the heavy and light chains were shown in Example 1) were detected by using ELISA. The CD3E&D, Trop2, or PDL1 protein was coated onto 96-well plates by inventors, and the strength of the signal after the addition of the antibody was used to determine the binding properties of the antibody and the corresponding protein.
(2) Trop2 protein (purchased from Acro) was diluted to 2 μg/ml with PBS buffer, added to a 96-well plate at a volume of 100 μL/well, and placed at 4° C. overnight. The PBS buffer in the 96-well plate was aspirated, and the plate was washed 6 times with PBST (pH 7.2 PBS containing 0.1% Tween 20) buffer. Then, 200 μL/well PBS/10% BSA was added and incubated at 37° C. for 2 h for blocking. The blocking solution was removed, and the plate was washed six times with PBST. Then, the to-be-tested bispecific antibodies, Cross3×Trop2, Cross303×Trop2, Cross307×Trop2, Cross308×Trop2, Cross309×Trop2, Cross310×Trop2, Cross311×Trop2, Cross312×Trop2, Cross313×Trop2, Cross314×Trop2, Cross316×Trop2, Cross317×Trop2, Cross318×Trop2, Cross323×Trop2, Cross325×Trop2, Cross326×Trop2, and control IgG1LALA (purchased from Bio-Tech), serially diluted with PBST/0.05% BSA, were added at 100 μL/well and incubated at 37° C. for 1 h. The reaction system was removed, and the plate was washed 6 times with PBST. Then, HRP (horseradish peroxidase)-labeled anti-human secondary antibody (Fab specific) (purchased from Sigma) diluted with PBST/0.05% BSA at 100 μL/well. After the plate was washed six times with PBST, TMB (tetramethylbenzidine) was added at 80 μL/well, and incubated at room temperature for 3 min. 4 M sulfuric acid was added at 80 μL/well to terminate the reaction. The absorbance was read at 450 nm using a microplate reader.

[1] = target: T2, Trop2 on A-375-Trop2 melanoma cells; assay: flow cytometry, A-375-Trop2 cells, MFI [panel B]
Experimental: (2) The tumor cells were diluted to 2×10⁶/ml with PBS and added to a 1.5 ml EP tube at a volume of 100 μl/tube, and goat serum was added thereto at 10 μl/tube. The cells were blocked at 4° C. for 30 min. The serially diluted bispecific antibodies, Cross3×Trop2, Cross303×Trop2, Cross307×Trop2, Cross308×Trop2, Cross309×Trop2, Cross310×Trop2, Cross311×Trop2, Cross312×Trop2, Cross313×Trop2, Cross314×Trop2, Cross316×Trop2, Cross317×Trop2, Cross318×Trop2, Cross323×Trop2, Cross325×Trop2, Cross326×Trop2, and Cross3×PDL1, Cross303×PDL1, Cross307×PDL1, Cross308×PDL1, Cross309×PDL1, Cross310×PDL1, Cross311×PDL1, Cross312×PDL1, Cross313×PDL1, Cross314×PDL1, Cross316×PDL1, Cross317×PDL1, Cross318×PDL1, Cross323×PDL1, Cross325×PDL1, Cross326×PDL1, and control hIgG1LALA (purchased from Bio-Tech) were added and incubated at 4° C. for 30 min. 1 ml of PBS was added to the EP tube, followed by centrifugation at 3500 rpm for 5 min at 4° C. The supernatant was discarded, and the cells were washed again with PBS. After centrifugation, the supernatant was completely discarded, and the cells were resuspended with PBS at 100 μl/tube. Alexa-647-labeled goat anti-human IgG secondary antibody (purchased from Jackson lab) was added at 1 μl/tube and incubated at 4° C. in the dark for 30 min. The cells were washed twice with PBS, and the supernatant was completely discarded after centrifugation. The cells were resuspended with PBS at 200 μl/tube and assay was performed using the flow cytometry.

| Binder | EC50 (read off the curve) (Trop2 protein) [µg/mL] | EC50 (read off the curve) [1] [µg/mL] |
| --- | --- | --- |
| Cross313×Trop2 (bispecific antibody) scFv: not shown heavy: QVQLQQSGSELKKPGASVKVSCKASGYTFTNYGMNWVKQAPGQGLKWMGWINTYTGEPTYTDDFKGRFAFSLDTSVSTAYLQISSLKADDTAVYFCARGGFGSSYWYFDVWGQGSLVTVSSASTKGPSVFPLAPSSKSTSGGTAALGCLVKDYFPEPVTVSWNSGALTSGVHTFPAVLQSSGLYSLSSVVTVPSSSLGTQTYICNVNHKPSNTKVDKKVEPKSSDKTHTCPPCPAPEAAGGPSVFLFPPKPKDTLMISRTPEVTCVVVDVSHEDPEVKFNWYVDGVEVHNAKTKPREEQYNSTYRVVSVLTVLHQDWLNGKEYKCKVSNKALPAPIEKTISKAKGQPREPQVCTLPPSREEMTKNQVSLSCAVKGFYPSDIAVEWESNGQPENNYKTTPPVLDSDGSFFLVSKLTVDKSRWQQGNVFSCSVMHEALHNHYTQKSLSLSPGK light: DIQLTQSPSSLSASVGDRVSITCKASQDVSIAVAWYQQKPGKAPKLLIYSASYRYTGVPDRFSGSGSGTDFTLTISSLQPEDFAVYYCQQHYITPLTFGAGTKVEIKRTVAAPSVFIFPPSDEQLKSGTASVVCLLNNFYPREAKVQWKVDNALQSGNSQESVTEQDSKDSTYSLSSTLTLSKADYEKHKVYACEVTHQGLSSPVTKSFNRGEC | ~0.008 | ~1 |
| Cross309×Trop2 (bispecific antibody) scFv: not shown heavy: QVQLQQSGSELKKPGASVKVSCKASGYTFTNYGMNWVKQAPGQGLKWMGWINTYTGEPTYTDDFKGRFAFSLDTSVSTAYLQISSLKADDTAVYFCARGGFGSSYWYFDVWGQGSLVTVSSASTKGPSVFPLAPSSKSTSGGTAALGCLVKDYFPEPVTVSWNSGALTSGVHTFPAVLQSSGLYSLSSVVTVPSSSLGTQTYICNVNHKPSNTKVDKKVEPKSSDKTHTCPPCPAPEAAGGPSVFLFPPKPKDTLMISRTPEVTCVVVDVSHEDPEVKFNWYVDGVEVHNAKTKPREEQYNSTYRVVSVLTVLHQDWLNGKEYKCKVSNKALPAPIEKTISKAKGQPREPQVCTLPPSREEMTKNQVSLSCAVKGFYPSDIAVEWESNGQPENNYKTTPPVLDSDGSFFLVSKLTVDKSRWQQGNVFSCSVMHEALHNHYTQKSLSLSPGK light: DIQLTQSPSSLSASVGDRVSITCKASQDVSIAVAWYQQKPGKAPKLLIYSASYRYTGVPDRFSGSGSGTDFTLTISSLQPEDFAVYYCQQHYITPLTFGAGTKVEIKRTVAAPSVFIFPPSDEQLKSGTASVVCLLNNFYPREAKVQWKVDNALQSGNSQESVTEQDSKDSTYSLSSTLTLSKADYEKHKVYACEVTHQGLSSPVTKSFNRGEC | ~0.008 | ~1 |
| Cross310×Trop2 (bispecific antibody) scFv: not shown heavy: QVQLQQSGSELKKPGASVKVSCKASGYTFTNYGMNWVKQAPGQGLKWMGWINTYTGEPTYTDDFKGRFAFSLDTSVSTAYLQISSLKADDTAVYFCARGGFGSSYWYFDVWGQGSLVTVSSASTKGPSVFPLAPSSKSTSGGTAALGCLVKDYFPEPVTVSWNSGALTSGVHTFPAVLQSSGLYSLSSVVTVPSSSLGTQTYICNVNHKPSNTKVDKKVEPKSSDKTHTCPPCPAPEAAGGPSVFLFPPKPKDTLMISRTPEVTCVVVDVSHEDPEVKFNWYVDGVEVHNAKTKPREEQYNSTYRVVSVLTVLHQDWLNGKEYKCKVSNKALPAPIEKTISKAKGQPREPQVCTLPPSREEMTKNQVSLSCAVKGFYPSDIAVEWESNGQPENNYKTTPPVLDSDGSFFLVSKLTVDKSRWQQGNVFSCSVMHEALHNHYTQKSLSLSPGK light: DIQLTQSPSSLSASVGDRVSITCKASQDVSIAVAWYQQKPGKAPKLLIYSASYRYTGVPDRFSGSGSGTDFTLTISSLQPEDFAVYYCQQHYITPLTFGAGTKVEIKRTVAAPSVFIFPPSDEQLKSGTASVVCLLNNFYPREAKVQWKVDNALQSGNSQESVTEQDSKDSTYSLSSTLTLSKADYEKHKVYACEVTHQGLSSPVTKSFNRGEC | ~0.008 | ~1 |

Further lines, results first:

| EC50 (read off the curve) (Trop2 protein) [µg/mL] | EC50 (read off the curve) [1] [µg/mL] | Binder |
| --- | --- | --- |
| ~0.008 | ~1 | Cross308×Trop2 (bispecific antibody) scFv: not shown heavy: QVQLQQSGSELKKPGASVKVSCKASGYTFTNYGMNWVKQAPGQGLKWMGWINTYTGEPTYTDDFKGRFAFSLDTSVSTAYLQISSLKADDTAVYFCARGGFGSSYWYFDVWGQGSLVTVSSASTKGPSVFPLAPSSKSTSGGTAALGCLVKDYFPEPVTVSWNSGALTSGVHTFPAVLQSSGLYSLSSVVTVPSSSLGTQTYICNVNHKPSNTKVDKKVEPKSSDKTHTCPPCPAPEAAGGPSVFLFPPKPKDTLMISRTPEVTCVVVDVSHEDPEVKFNWYVDGVEVHNAKTKPREEQYNSTYRVVSVLTVLHQDWLNGKEYKCKVSNKALPAPIEKTISKAKGQPREPQVCTLPPSREEMTKNQVSLSCAVKGFYPSDIAVEWESNGQPENNYKTTPPVLDSDGSFFLVSKLTVDKSRWQQGNVFSCSVMHEALHNHYTQKSLSLSPGK light: DIQLTQSPSSLSASVGDRVSITCKASQDVSIAVAWYQQKPGKAPKLLIYSASYRYTGVPDRFSGSGSGTDFTLTISSLQPEDFAVYYCQQHYITPLTFGAGTKVEIKRTVAAPSVFIFPPSDEQLKSGTASVVCLLNNFYPREAKVQWKVDNALQSGNSQESVTEQDSKDSTYSLSSTLTLSKADYEKHKVYACEVTHQGLSSPVTKSFNRGEC |
| ~0.008 | ~1 | Cross312×Trop2 (bispecific antibody) scFv: not shown heavy: QVQLQQSGSELKKPGASVKVSCKASGYTFTNYGMNWVKQAPGQGLKWMGWINTYTGEPTYTDDFKGRFAFSLDTSVSTAYLQISSLKADDTAVYFCARGGFGSSYWYFDVWGQGSLVTVSSASTKGPSVFPLAPSSKSTSGGTAALGCLVKDYFPEPVTVSWNSGALTSGVHTFPAVLQSSGLYSLSSVVTVPSSSLGTQTYICNVNHKPSNTKVDKKVEPKSSDKTHTCPPCPAPEAAGGPSVFLFPPKPKDTLMISRTPEVTCVVVDVSHEDPEVKFNWYVDGVEVHNAKTKPREEQYNSTYRVVSVLTVLHQDWLNGKEYKCKVSNKALPAPIEKTISKAKGQPREPQVCTLPPSREEMTKNQVSLSCAVKGFYPSDIAVEWESNGQPENNYKTTPPVLDSDGSFFLVSKLTVDKSRWQQGNVFSCSVMHEALHNHYTQKSLSLSPGK light: DIQLTQSPSSLSASVGDRVSITCKASQDVSIAVAWYQQKPGKAPKLLIYSASYRYTGVPDRFSGSGSGTDFTLTISSLQPEDFAVYYCQQHYITPLTFGAGTKVEIKRTVAAPSVFIFPPSDEQLKSGTASVVCLLNNFYPREAKVQWKVDNALQSGNSQESVTEQDSKDSTYSLSSTLTLSKADYEKHKVYACEVTHQGLSSPVTKSFNRGEC |
